Assay results taken from patent US10253323B2, “Chloroplast transit peptides” (priority 2015, dated 2019).
“Also recorded” adds a separate entry of the source.

Columns and labels:
[1] = tested on: chloroplasts of the tobacco leaf tissues; experiment: Tobacco transient assay, confocal microscopy of TraP-YFP/GFP; type: cell-based, Nicotiana tabacum; settings: TraP-YFP or TraP-GFP fusion, Agrobacterium-infiltrated tobacco leaf tissue
From the text: The above described chimeric chloroplast transit peptide sequences were initially tested via a transient in planta assay. Polynucleotide sequences which encode the TraP10 (SEQ ID NO:9), TraP11 (SEQ ID NO:10), TraP17 (SEQ ID NO:11), TraP18 (SEQ ID NO:12), TraP19 (SEQ ID NO:13), TraP26 (SEQ ID NO:14), TraP27 (SEQ ID NO:15), and TraP28 (SEQ ID NO:16), chimeric chloroplast transit peptide sequences were synthesized. A linker sequence (SEQ ID NO:17) was incorporated between the TraP sequence and the yfp coding sequence of TraP10 and TraP11. The resulting constructs contained two plant transcription units (PTU). The first PTU was comprised of the Arabidopsis thaliana Ubiquitin 10 promoter (AtUbi10 promoter; Callis, et al., (1990) J. Biol. Chem., 265: 12486-12493), TraP-yellow fluorescent protein fusion gene (TraP-YFP; US Patent App. 2007/0298412) or the TraP-green fluorescent protein fusion gene (TraP-GFP; Sheen et al., (1995) Plant J., 8(5): 777-84), and Agrobacterium tumefaciens ORF 23 3′ untranslated region (AtuORF23 3′UTR; U.S. Pat. No. 5,428,147). The second PTU was comprised of the Cassava Vein Mosaic Virus promoter (CsVMV promoter; Verdaguer et al., (1996) Plant Molecular Biology, 31: 1129-1139), phosphinothricin acetyl transferase (PAT; Wohlleben et al., (1988) Gene, 70: 25-37) or DSM-II (International Patent App. 2008070845), and Agrobacterium tumefaciens ORF 1 3′ untranslated region (AtuORF1 3′UTR; Huang et al., (1990) J. Bacteriol., 172: 1814-1822). Construct pDAB101979 contains the TraP10 chimeric chloroplast transit peptide (FIG. 3). Construct pDAB101980 contains the TraP11 chimeric chloroplast transit peptide (FIG. 4). Construct pDAB107634 contains the TraP17 chimeric chloroplast transit peptide (FIG. 5). Construct pDAB107635 contains the TraP18 chimeric chloroplast transit peptide (FIG. 6). Construct pDAB107636 contains the TraP19 chimeric chloroplast transit peptide (FIG. 7). Construct pDAB109847 contains the TraP26 chimeric chloroplast transit peptide (FIG. 8). Construct pDAB109848 contains the TraP27 chimeric chloroplast transit peptide (FIG. 9). Construct pDAB109849 contains the TraP28 chimeric chloroplast transit peptide (FIG. 10). […] The constructs were confirmed via restriction enzyme digestion and sequencing. Finally, the constructs were transformed into Agrobacterium tumefaciens and stored as glycerol stocks.
From an Agrobacterium glycerol stock, a loop full of frozen culture was inoculated into 2 ml of Yeast-extract Peptone Dextrose (100 μg/ml spectinomycin) in a 14 ml sterile tube. The inoculated media was incubated at 28° C. overnight with shaking at 200 rpm. The following day about 100 μl of the culture was used to inoculate 25 ml of YPD (100 μg/ml spectinomycin) in a 125 ml sterile tri-baffled flask, and incubated overnight at 28° C. overnight with shaking at 200 rpm. The following day the cultures were diluted to an OD600 of 0.5 in sterile ddH2O (pH 8.0). The diluted Agrobacterium strain was mixed with a second Agrobacterium strain containing the P19 helper protein at a ratio of 1:1. The culture were used for tobacco leaf infiltration via the Voinnet method. Voinnet O, Rivas S, Mestre P, and Baulcombe D, (2003) An enhanced transient expression system in plants based on suppression of gene silencing by the p19 protein of tomato bushy stunt virus. The Plant Journal, 33: 949-956. Infiltrated tobacco plants were placed in a Conviron™ set at 16 hr of light at 24° C. for at least three days until being assayed.
Agrobacterium-infiltrated tobacco leaves were severed from the plant, and placed into a petri-dish with water to prevent dehydration. The infiltrated tobacco leaves were observed under blue light excitation with long-pass filter glasses held in place using a Dark Reader Hand Lamp™ (Clare Chemical Research Co.; Dolores, Colo.) to identify undamaged areas of the leaf that were successfully expressing the YFP or GFP reporter proteins. […]

tobacco budworm (TBW) = experiment: Insect bioassay of Cry2Aa Arabidopsis events, tobacco budworm; type: in vivo
Procedure: (§1) The effectiveness of the TraP11 chimeric chloroplast transit peptides on Cry2Aa protein expression in Arabidopsis thaliana was assessed. Transgenic Arabidopsis plants which contained TraP11 chimeric chloroplast transit peptides fused to the Cry2Aa protein were assayed for insect tolerance to soybean looper (SBL) and tobacco budworm (TBW).
(§2) A small aliquot of T2 seed (approx. 100-200 seeds) for each event were suspended in 40 mls of 0.1% agarose solution and cold stratified at 4° C. for 24 hrs. The stratified seeds were then sown by pipetting 10 ml of seed onto the surface of four flats in a propagation flat. The flats were filled with Sunshine #5 soil Media™ (Sun Gro; Bellevue, Wash.) and lightly covered with fine vermiculite. The trays were saturated in Hoagland's fertilizer prior to sowing and as needed afterward. After sowing, humidity domes were used to cover the trays and they were then placed into a Conviron™ growth chamber set at 24° C. with a 16 hr photo period. Incandescent and fluorescent lights provided a light level of 200 PAR. After 5 days the seeds germinated and the domes were removed. The first herbicide selection of transformants was on day 6 and the second on day 10. Liberty™ herbicide (a.i. glufosinate-ammonium) was applied using a DeVilbiss atomizer hand sprayer at a rate of 200 g ai/ha to remove nulls. Roughly 25% of the plants were nulls as expected. A row of wild type checks were also included in the selection and they had 100% mortality after two herbicide applications. At 14 days the plants were ready for transplanting. […] The flats were presoaked with Hoagland's fertilizer prior to transplant and afterward as needed. The transplants were propagated in a non-air conditioned green house set at 25° C. with 14 hours of supplemental light. Silique development was inhibited by trimming with scissors and thus created more plant tissue for testing. Plants were ready for DNA sampling at 16-18 days and ready for bio-assay at about 23 days. The putative transgenic plants were screened using molecular confirmation assays and identified events were advanced for protein analysis and bioassay results.
(§3) Both sets of T1 Arabidopsis events were tested in insect bioassay experiments. […] There was a correlation between protein expression and leaf protection against both SBL and TBW for Arabidopsis events expressing Cry2Aa without a TraP (r^2=0.49 [SBL], 0.23 [TBW]), and for Arabidopsis events expressing Cry2Aa with TraP11 (r^2=0.75 [SBL], 0.17 [TBW]). Resultantly, an increase in protein expression caused significant protection against leaf damage (Pr<0.05).

soybean looper (SBL) = experiment: Insect bioassay of Cry2Aa Arabidopsis events, soybean looper; type: in vivo
Procedure: as §1, §2, §3

[2] = tested on: infiltrated tobacco cells; experiment: Western blot of infiltrated tobacco plants; type: cell-based, Nicotiana tabacum; settings: infiltrated tobacco leaf tissue
Procedure: Samples of the infiltrated tobacco plants were assayed via Western blotting. Leaf punches were collected and subjected to bead-milling. About 100-200 mg of leaf material was mixed with 2 BBs (Daisy; Rogers, Ark.) and […] of PBST for 3 minutes in a Kleco™ bead mill. The samples were then spun down in a centrifuge at 14,000× g at 4° C. The supernatant was removed and either analyzed directly via Western blot or immunoprecipitated. The immunoprecipitations were performed using the Pierce Direct IP Kit™ (Thermo Scientific; Rockford, Ill.) following the manufacturer's protocol. Approximately, 50 μg of anti-YFP or anti-GFP was bound to the resin. The samples were incubated with the resin overnight at 4° C. Next, the samples were washed and eluted the following morning and prepped for analysis by combining equal volumes of 2×8M Urea sample buffer and then boiling the samples for 5 minutes. The boiled samples were run on a 4-12% SDS-Bis Tris gel in MOPS buffer for 40 minutes. The gel was then blotted using the Invitrogen iBlot™ (Life Technologies; Carlsbad, Calif.) following the manufacturer's protocol. The blotted membrane was blocked for 10 minutes using 5% non-fat dry milk in PBS-Tween® solution. The membrane was probed with the primary antibody (monoclonal anti-GFP or anti-YFP in rabbit) used at a 1:1000 dilution in the 5% non-fat dry milk in PBS-Tween® solution for 1 hour. Next, the membrane was rinsed three times for five minutes with PBS-Tween® to remove all unbound primary antibody. The membrane was probed with a secondary monoclonal anti-rabbit in goat antibody (Life Technologies) used at a 1:1000 dilution, for 60 minutes. The membrane was washed as previously described and developed by adding Themo BCIP/NBT™ substrate. The colormetric substrate was allowed to develop for 5-10 minutes and then the blots were rinsed with water before being dried.

B1: TraP11: chimeric chloroplast transit peptide, SEQ ID NO:2; N-terminus Glycine max, C-terminus Brassica napus; tested fused to YFP (pDAB101980) (protein)
chain: MAQVSRVHNLAQSTQIFGHSSNSNKLKSVNSVSLKTHQPRASSWGLKKSGTMLNGSVIRPVKVTASVS
modifications: TraP11
translocation of YFP or GFP fluorescent protein into chloroplasts [1]: accumulated within the chloroplasts; also recorded: successfully targeted YFP to tobacco chloroplasts | translocation of YFP or GFP fluorescent protein into chloroplasts ([1]; listed as TraP11-YFP): translocated into the chloroplasts | protection of Arabidopsis plants from TBW damage (tobacco budworm (TBW)): provided insect tolerance | protection of Arabidopsis plants from SBL damage (soybean looper (SBL)): provided insect tolerance | TraP processed and cleaved from the YFP or GFP protein [2]: processed and cleaved from the YFP or GFP protein
